For series [1], the target named is T1, TrwCR (N-terminal relaxase domain of TrwC) (UniProt Q47673 1-293).
T1 sequence: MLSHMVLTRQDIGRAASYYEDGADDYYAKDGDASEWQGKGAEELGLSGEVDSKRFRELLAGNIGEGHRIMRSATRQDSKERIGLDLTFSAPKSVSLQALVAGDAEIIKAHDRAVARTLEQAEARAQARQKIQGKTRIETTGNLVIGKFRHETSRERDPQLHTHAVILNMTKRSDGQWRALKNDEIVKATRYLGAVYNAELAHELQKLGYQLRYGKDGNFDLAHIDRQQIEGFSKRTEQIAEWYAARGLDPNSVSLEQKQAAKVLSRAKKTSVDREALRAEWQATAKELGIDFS
Put plainly: SDS-PAGE covalent complex; 5 mM Mg2+; Covalent complex: 15 uM oligo, 37 C 1 h, 5 mM MgCl2, 15 uM EDTA; TrwCR 10 mM Tris pH 7.6, 375 mM NaCl; MobAR 25 mM Tris pH 8.0, 225 mM NaCl; TraIR 10 mM Tris pH 7.6, 225 mM NaCl. EMSA: 50 nM oligo, 10 mM Tris pH 7.6, 100 mM NaCl, 1 mM EDTA, RT 30 min. Gel filtration: 100 mM Tris pH 7.6, 200 mM NaCl, EDTA. As to conditions: protein: recombinant. For orientation: In gel filtration, larger molecules generally elute earlier.

Series [2] concerns the target T2, TraIR (N-terminal domain of TraI) (plasmid RP4, UniProt Q00191 1-270).
T2 sequence: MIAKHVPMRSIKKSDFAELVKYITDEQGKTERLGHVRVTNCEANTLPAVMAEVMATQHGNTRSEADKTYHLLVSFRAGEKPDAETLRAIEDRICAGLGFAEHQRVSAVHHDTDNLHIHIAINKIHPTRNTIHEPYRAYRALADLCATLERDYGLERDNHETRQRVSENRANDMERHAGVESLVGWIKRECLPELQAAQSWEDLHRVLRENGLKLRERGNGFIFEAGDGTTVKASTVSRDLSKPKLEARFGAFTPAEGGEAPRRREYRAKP
The series is described as above. As to conditions: protein: recombinant.

Another series has as its target T3, MobAR (minMobA) (plasmid RSF1010, UniProt P07112 1-186).
T3 sequence: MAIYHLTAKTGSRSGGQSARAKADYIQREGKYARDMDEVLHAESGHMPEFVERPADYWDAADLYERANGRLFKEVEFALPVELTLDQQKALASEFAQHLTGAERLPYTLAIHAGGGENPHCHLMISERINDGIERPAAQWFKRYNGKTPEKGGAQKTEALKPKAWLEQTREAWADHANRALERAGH
Described as above. As to conditions: protein: recombinant; hairpin.

For series [3], the target named is T1, TrwCR (N-terminal relaxase domain of …). Put plainly: gel filtration; EDTA; Covalent complex: 15 uM oligo, 37 C 1 h, 5 mM MgCl2, 15 uM EDTA; TrwCR 10 mM Tris pH 7.6, 375 mM NaCl; MobAR 25 mM Tris pH 8.0, 225 mM NaCl; TraIR 10 mM Tris pH 7.6, 225 mM NaCl. EMSA: 50 nM oligo, 10 mM Tris pH 7.6, 100 mM NaCl, 1 mM EDTA, RT 30 min. Gel filtration: 100 mM Tris pH 7.6, 200 mM NaCl, EDTA. As to conditions: protein: recombinant; hairpin.

Series [4] shares this target. Put plainly: gel filtration; EDTA; slight shift; Covalent complex: 15 uM oligo, 37 C 1 h, 5 mM MgCl2, 15 uM EDTA; TrwCR 10 mM Tris pH 7.6, 375 mM NaCl; MobAR 25 mM Tris pH 8.0, 225 mM NaCl; TraIR 10 mM Tris pH 7.6, 225 mM NaCl. EMSA: 50 nM oligo, 10 mM Tris pH 7.6, 100 mM NaCl, 1 mM EDTA, RT 30 min. Gel filtration: 100 mM Tris pH 7.6, 200 mM NaCl, EDTA. As to conditions: protein: recombinant; hairpin.

Series [5] shares this target. Put plainly: SDS-PAGE covalent complex; 5 mM Mg2+; text says product not detected; Covalent complex: 15 uM oligo, 37 C 1 h, 5 mM MgCl2, 15 uM EDTA; TrwCR 10 mM Tris pH 7.6, 375 mM NaCl; MobAR 25 mM Tris pH 8.0, 225 mM NaCl; TraIR 10 mM Tris pH 7.6, 225 mM NaCl. EMSA: 50 nM oligo, 10 mM Tris pH 7.6, 100 mM NaCl, 1 mM EDTA, RT 30 min. Gel filtration: 100 mM Tris pH 7.6, 200 mM NaCl, EDTA. As to conditions: protein: recombinant; hairpin.

On to GGTGCGTATTGTCTATAGCCCGCGCACC (structured_DNA) [R388 H(14+14)], for which, in series [1] (hairpin), the binding signal amounted to 26.8 ± 4.7 % covalent complex. GTGAAGGAAACTTCACCTATCCTGCCCGGCTG (structured_DNA) [RP4 WP(24+8)]: in series [2] (hairpin), the binding signal was determined as 21.3 ± 0.9 % covalent complex. CTATCCTGCCCGGCTGGTGAAGGAAACTTCAC (structured_DNA) [RP4 RP(8+24)]: the binding signal in series [2] (hairpin) is 23.7 ± 2.7 % covalent complex. For the molecule TATTGTCTATAGCCCAGATCGCACCGAAAGGTGCG (structured_DNA) [R388 R(8+27)], the binding signal in series [1] (hairpin) was 44.7 ± 1 % covalent complex. On the same count and under the same terms, then TATTGTCTATAGCCCACGCACCGAAAGGTGCG (structured_DNA) [R388 R(8+24)], with 45.3 ± 6.6 % covalent complex.

With CAGTTTCTCGAAGAGAAACCGGTAAGTGCGCCCTCCC (structured_DNA) [RSF1010 WQ(30+7)], the binding signal in the series with MobAR (minMobA) was 43.9 ± 1.4 % covalent complex. On to CCGGTTGAAAACCGGTAAGTGCGCCCTCCCC (structured_DNA) [RSF1010 WQ(23+7)], for which, in the series with MobAR (minMobA), the binding signal stood at 41.4 ± 1.3 % covalent complex.

On to GAGAAACCGGTAAGTGCGCCCTCCCCAGTTTCTC (structured_DNA) [RSF1010 HQ(18+16)], for which, in the series with MobAR (minMobA), the binding signal was 13.1 ± 4.2 % covalent complex. GCGCACCGAAAGGTGCGTATTGTCTATAGCCCAGATTTAAGGA (structured_DNA) [R388 W(25+18)]: the binding signal in series [1] (hairpin) worked out at 24.7 ± 2.1 % covalent complex. In the case of AACCGGCTAGGTGCGTATTGTCTATAGCCCAGATCGCACCTAGCCGGTT (structured_DNA) [R388 H(23+26)], in series [3], the binding result is reported as “binds”. ATTGTCTATAGCCCAGATCGCACCGAAAGGTGCG (structured_DNA) [R388 R(7+27)]: the binding result in series [4] is “binds”. On to ATAGCCCAGATCGCACCGAAAGGTGCG (structured_DNA) [R388 R(0+27)], for which the binding signal in series [5] is 5.8 ± 1.9 % covalent complex.

For GAGAAACCGGTAAGTGCGCCCTCCCGATCAGTTTCTC (structured_DNA) [RSF1010 HQ(18+19)], in the series with MobAR (minMobA), the binding signal came to 9 ± 3.1 % covalent complex. For GGTGCGTATTGTCTATAGCCCAGATCGCACC (structured_DNA) [R388 H(14+17)], the binding signal in series [1] (hairpin) was determined as 22.3 ± 6.1 % covalent complex. As for ACTTCACCTATCCTGCCCGGC (ssDNA) [RP4 WP(15+6)], in series [2], the binding signal turned out to be 24.4 ± 5.7 % covalent complex.

On to GGTGCGTATTGTCTATAGCGCGCACC (structured_DNA) [R388 H(14+12)], for which the binding signal in series [1] (hairpin) was determined as 25.5 ± 3.1 % covalent complex. The same measure, in the same setting: as for GGTGCGTATTGTCTATAGCCGCGCACC (structured_DNA) [R388 H(14+13)], the figure is 23.3 ± 2.9 % covalent complex.

Consider GGTGCGTATTGTCTATAGCCCAGATTTA (ssDNA) [R388 W(14+14)], for which, in series [1], the binding signal turned out to be 19.8 ± 1.9 % covalent complex. Regarding GTCTATAGCCCAGATCGCACCGAAAGGTGCG (structured_DNA) [R388 R(4+27)], the binding signal in series [5] came out at 9.9 ± 3.9 % covalent complex. The same measure, in the same setting: then TATAGCCCAGATCGCACCGAAAGGTGCG (structured_DNA) [R388 R(1+27)], with 9.9 ± 3.2 % covalent complex. Consider GGTGCGTATTGTCTATAGCGCACC (structured_DNA) [R388 H(14+10)], for which the binding signal in series [1] (hairpin) was 23 ± 4.7 % covalent complex.

Regarding AACCGGCTAGGTGCGTATTGTCTATAGCCCACGCACCTAGCCGGTT (structured_DNA) [R388 H(23+23)], in series [3], the binding result is given as “binds”. As for GGTGCGTATTGTCTATCGCACC (structured_DNA) [R388 H(14+8)], the binding signal in series [1] (hairpin) was 22.4 ± 5.7 % covalent complex. Same read-out and setting: then GGTGCGTATTGTCTATAGCCCAGCGCACC (structured_DNA) [R388 H(14+15)], with 19.6 ± 1.4 % covalent complex.

CCGGTGCGTATTGTCTATAGCCCGCGCACCGG (structured_DNA) [R388 H(16+16)]: in series [3], the binding result is recorded as “binds”. In the case of TATTGTCTATAGCCCACGCACC (ssDNA) [R388 R(8+14)], the binding signal in series [1] is 30.2 ± 4.9 % covalent complex.

The values are drawn from PMC4814116, “Design of Novel Relaxase Substrates Based on Rolling Circle Replicases for Bioconjugation to DNA Nanostructures”.
